Reference: the supplement of paper PMC9112550, “Optimization of the antimicrobial peptide Bac7 by deep mutational scanning” (BMC Biology, 2022)

What follows are sequences tested on Escherichia coli TOP10 (assay: shrunken log2 fold change of peptide-encoding DNA abundance (4.5 h post-induction vs induction); higher = less antimicrobial activity (less host growth inhibition)). Details: time post-induction: 4.5 h; library: site-saturation at positions 5, 18, 19, 20.
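Note: peptides expressed intracellularly from a pBAD plasmid library in pooled LB shake-flask culture, induced with 0.3% L-arabinose, DNA abundance read by NGS, three biological replicates, DESeq2 with apeglm shrinkage.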

| Sequence | shrunken log2 fold change |
| --- | --- |
| RRIRTRPPRLPRPRPRPTTSPRP | 0.0942 |
| RRIRMRPPRLPRPRPRPQVYPRP | 0.0985 |
| RRIRFRPPRLPRPRPRPSMDPRP | -0.819 |
| RRIRMRPPRLPRPRPRPTFTPRP | 0.141 |
| RRIRCRPPRLPRPRPRPGAPPRP | 0.734 |
| RRIRHRPPRLPRPRPRPKSYPRP | -0.245 |
| RRIRKRPPRLPRPRPRPQKIPRP | -0.0746 |
| RRIRLRPPRLPRPRPRPVYWPRP | -0.14 |
| RRIRLRPPRLPRPRPRPRGLPRP | 0.146 |
| RRIRLRPPRLPRPRPRPPMFPRP | -0.242 |
| RRIRFRPPRLPRPRPRPPMKPRP | 0.0021 |
| RRIRERPPRLPRPRPRPTSVPRP | -0.028 |
| RRIRERPPRLPRPRPRPYQEPRP | -0.255 |
| RRIRGRPPRLPRPRPRPEDAPRP | 1.65 |
| RRIRHRPPRLPRPRPRPIIPPRP | -0.197 |
| RRIRLRPPRLPRPRPRPNYLPRP | -0.377 |
| RRIRRRPPRLPRPRPRPVNVPRP | -0.0902 |
| RRIRHRPPRLPRPRPRPCVTPRP | -0.609 |
| RRIRQRPPRLPRPRPRPNVNPRP | -0.543 |
| RRIRIRPPRLPRPRPRPWALPRP | -0.0173 |
| RRIRVRPPRLPRPRPRPHPRPRP | 0.555 |
| RRIRIRPPRLPRPRPRPRGPPRP | 0.81 |
| RRIRLRPPRLPRPRPRPYHFPRP | -0.26 |
| RRIRKRPPRLPRPRPRPKKPPRP | 0.0909 |
| RRIRNRPPRLPRPRPRPSCNPRP | -0.485 |

| Sequence | shrunken log2 fold change |
| --- | --- |
| RRIRPRPPRLPRPRPRPINVPRP | -0.366 |
| RRIRLRPPRLPRPRPRPGACPRP | 0.264 |
| RRIRSRPPRLPRPRPRPDQHPRP | -0.0484 |
| RRIRYRPPRLPRPRPRPDYIPRP | -0.0327 |
| RRIRRRPPRLPRPRPRPYIAPRP | -0.54 |
| RRIRCRPPRLPRPRPRPLPPPRP | 0.733 |
| RRIRQRPPRLPRPRPRPVSVPRP | 0.028 |
| RRIRPRPPRLPRPRPRPHHFPRP | -0.0294 |
| RRIRGRPPRLPRPRPRPNIKPRP | 0.136 |
| RRIRWRPPRLPRPRPRPMDWPRP | 0.482 |
| RRIRCRPPRLPRPRPRPSMFPRP | -0.651 |
| RRIRARPPRLPRPRPRPPWMPRP | 0.463 |
| RRIRWRPPRLPRPRPRPSDVPRP | -0.545 |
| RRIRIRPPRLPRPRPRPDGTPRP | -0.303 |
| RRIRYRPPRLPRPRPRPPGIPRP | 0.0348 |
| RRIRDRPPRLPRPRPRPCDSPRP | -0.0465 |
| RRIRRRPPRLPRPRPRPVWDPRP | 0.246 |
| RRIRIRPPRLPRPRPRPPKNPRP | -0.159 |
| RRIRARPPRLPRPRPRPNWWPRP | 0.802 |
| RRIRMRPPRLPRPRPRPPNLPRP | 0.0707 |
| RRIRCRPPRLPRPRPRPWTSPRP | -0.419 |
| RRIRERPPRLPRPRPRPCTEPRP | -0.196 |
| RRIRYRPPRLPRPRPRPKAHPRP | -0.376 |
| RRIRVRPPRLPRPRPRPMDPPRP | -0.56 |
| RRIRSRPPRLPRPRPRPLKIPRP | -0.309 |

| Sequence | shrunken log2 fold change |
| --- | --- |
| RRIRCRPPRLPRPRPRPRHFPRP | -0.374 |
| RRIRDRPPRLPRPRPRPQQSPRP | 0.0846 |
| RRIRFRPPRLPRPRPRPTTRPRP | 0.177 |
| RRIRQRPPRLPRPRPRPIMHPRP | -0.172 |
| RRIRARPPRLPRPRPRPQAFPRP | -0.323 |
| RRIRSRPPRLPRPRPRPRQNPRP | -0.0458 |
| RRIRTRPPRLPRPRPRPTGGPRP | 0.164 |
| RRIRTRPPRLPRPRPRPPQMPRP | 0.185 |
| RRIRFRPPRLPRPRPRPNRWPRP | 0.0144 |
| RRIRIRPPRLPRPRPRPFPYPRP | -0.288 |
| RRIRWRPPRLPRPRPRPHSMPRP | -0.216 |
| RRIRYRPPRLPRPRPRPEFMPRP | -0.0255 |
| RRIRQRPPRLPRPRPRPQRIPRP | -0.226 |
| RRIRDRPPRLPRPRPRPERDPRP | 0.312 |
| RRIRDRPPRLPRPRPRPTHCPRP | 0.0452 |
| RRIRDRPPRLPRPRPRPIDHPRP | -0.273 |
| RRIRARPPRLPRPRPRPFCMPRP | 0.0299 |
| RRIRDRPPRLPRPRPRPVDWPRP | 0.812 |
| RRIRERPPRLPRPRPRPYGPPRP | -1.02 |
| RRIRYRPPRLPRPRPRPFIEPRP | -1.2 |
| RRIRNRPPRLPRPRPRPRRIPRP | 0.0821 |
| RRIRLRPPRLPRPRPRPSIYPRP | -0.801 |
| RRIRNRPPRLPRPRPRPNHLPRP | -0.317 |
| RRIRVRPPRLPRPRPRPWDPPRP | -0.301 |
| RRIRQRPPRLPRPRPRPVMTPRP | -0.172 |

| Sequence | shrunken log2 fold change |
| --- | --- |
| RRIRWRPPRLPRPRPRPVTKPRP | 0.235 |
| RRIRIRPPRLPRPRPRPLCEPRP | -0.332 |
| RRIRHRPPRLPRPRPRPIPNPRP | 0.101 |
| RRIRPRPPRLPRPRPRPPLIPRP | -0.338 |
| RRIRWRPPRLPRPRPRPKGFPRP | 0.437 |
| RRIRDRPPRLPRPRPRPPSSPRP | -0.0759 |
| RRIRIRPPRLPRPRPRPGLKPRP | 0.0429 |
| RRIRWRPPRLPRPRPRPYGQPRP | 0.051 |
| RRIRERPPRLPRPRPRPVYNPRP | -0.0493 |
| RRIRPRPPRLPRPRPRPRHGPRP | 0.0491 |
| RRIRHRPPRLPRPRPRPTSRPRP | 0.0698 |
| RRIRGRPPRLPRPRPRPVTAPRP | 0.74 |
| RRIRGRPPRLPRPRPRPQMQPRP | 1.04 |
| RRIRLRPPRLPRPRPRPGAHPRP | 0.057 |
| RRIRTRPPRLPRPRPRPNRMPRP | -0.331 |
| RRIRGRPPRLPRPRPRPMLFPRP | 0.935 |
| RRIRLRPPRLPRPRPRPLKNPRP | -0.295 |
| RRIRLRPPRLPRPRPRPAFVPRP | 0.205 |
| RRIRLRPPRLPRPRPRPVEMPRP | -0.0829 |
| RRIRARPPRLPRPRPRPFEKPRP | -0.122 |
| RRIRHRPPRLPRPRPRPGYHPRP | -0.126 |
| RRIRVRPPRLPRPRPRPRHVPRP | 0.0785 |
| RRIRTRPPRLPRPRPRPWMKPRP | 0.0159 |
| RRIRGRPPRLPRPRPRPTTHPRP | 0.875 |
| RRIRHRPPRLPRPRPRPHIPPRP | -0.514 |

| Sequence | shrunken log2 fold change |
| --- | --- |
| RRIRMRPPRLPRPRPRPDLEPRP | 1.54 |
| RRIRERPPRLPRPRPRPALAPRP | 0.432 |
| RRIRHRPPRLPRPRPRPSSIPRP | -0.762 |
| RRIRSRPPRLPRPRPRPEFCPRP | 0.132 |
| RRIRVRPPRLPRPRPRPWDHPRP | -0.103 |
| RRIRCRPPRLPRPRPRPLYPPRP | -0.729 |
| RRIRARPPRLPRPRPRPCYCPRP | -0.0765 |
| RRIRLRPPRLPRPRPRPHAWPRP | 0.62 |
| RRIRTRPPRLPRPRPRPIHAPRP | -0.0176 |
| RRIRHRPPRLPRPRPRPQPWPRP | 0.0549 |
| RRIRQRPPRLPRPRPRPGMGPRP | 0.33 |
| RRIRTRPPRLPRPRPRPLYEPRP | -0.774 |
| RRIRDRPPRLPRPRPRPGAWPRP | 4.01 |
| RRIRKRPPRLPRPRPRPKKCPRP | 0.405 |
| RRIRKRPPRLPRPRPRPARPPRP | 0.575 |
| RRIRPRPPRLPRPRPRPFKLPRP | -0.00835 |
| RRIRVRPPRLPRPRPRPQAPPRP | 0.167 |
| RRIRYRPPRLPRPRPRPWTRPRP | 0.0101 |
| RRIRLRPPRLPRPRPRPKAHPRP | 0.125 |
| RRIRYRPPRLPRPRPRPCHKPRP | -0.821 |
| RRIRNRPPRLPRPRPRPMPPPRP | 0.208 |
| RRIRRRPPRLPRPRPRPGDAPRP | 0.782 |
| RRIRHRPPRLPRPRPRPSEHPRP | 0.00525 |
| RRIRDRPPRLPRPRPRPAKGPRP | -0.0222 |
| RRIRNRPPRLPRPRPRPEIHPRP | 0.116 |

| Sequence | shrunken log2 fold change |
| --- | --- |
| RRIRVRPPRLPRPRPRPQSLPRP | 0.0116 |
| RRIRERPPRLPRPRPRPGGWPRP | 0.492 |
| RRIRCRPPRLPRPRPRPFDGPRP | -0.0927 |
| RRIRTRPPRLPRPRPRPPRYPRP | 0.152 |
| RRIRNRPPRLPRPRPRPPTNPRP | 0.151 |
| RRIRVRPPRLPRPRPRPDKYPRP | -0.277 |
| RRIRARPPRLPRPRPRPDLNPRP | 0.473 |
| RRIRNRPPRLPRPRPRPSFMPRP | -1.21 |
| RRIRNRPPRLPRPRPRPGVCPRP | 0.241 |
| RRIRIRPPRLPRPRPRPTIVPRP | 0.119 |
| RRIRHRPPRLPRPRPRPQMSPRP | -0.0899 |
| RRIRNRPPRLPRPRPRPNFNPRP | -0.734 |
| RRIRFRPPRLPRPRPRPLHMPRP | -1.06 |
| RRIRHRPPRLPRPRPRPHGIPRP | -0.0284 |
| RRIRSRPPRLPRPRPRPWWNPRP | -0.0574 |
| RRIRRRPPRLPRPRPRPVMYPRP | -0.127 |
| RRIRGRPPRLPRPRPRPIKEPRP | -0.104 |
| RRIRSRPPRLPRPRPRPKWYPRP | -0.336 |
| RRIRARPPRLPRPRPRPALPPRP | 0.309 |
| RRIRDRPPRLPRPRPRPHVDPRP | 0.07 |
| RRIRRRPPRLPRPRPRPVIIPRP | -0.106 |
| RRIRMRPPRLPRPRPRPLTMPRP | 0.24 |
| RRIRNRPPRLPRPRPRPTVAPRP | 0.351 |
| RRIRIRPPRLPRPRPRPTGWPRP | 0.19 |
| RRIRGRPPRLPRPRPRPCLIPRP | -0.183 |
